Measurements: PMC6532946, “Structure and assembly of pilotin-dependent and -independent secretins of the type II secretion system” (PLoS Pathogens, 2019)

B1: ExeD secretin from A. hydrophila (cell-free synthesized, His-tagged) (natural protein)
chain: TEYSASFKNADIEEFINTVGKNLSKTIIIEPSVRGKINVRSYDLLNEEQYYQFFLSVLDVYGFAVVPMDNGVLKVVRSKDAKTSAIPVVDETNPGIGDEMVTRVVPVRNVSVRELAPLLRQLNDNAGGGNVVHYDPSNVLLITGRAAVVNRLVEVVRRVDKAGDQEVDIIKLKYASAGEMVRLVTNLNKDGNSQGGNTSLLLAPKVVADERTNSVVVSGEPKARARIIQMVRQLDRDLQSQGNTRVFYLKYGKAKDMVEVLKGVSSSIEADKKGGGTATTAGGGASIGGGKLAISADETTNALVITAQPDVMAELEQVVAKLDIRRAQVLVEAIIVEIADGDGLNLGVQWANTNGGGTQFTNAGPGIGSVAIAAKDYKDNGTTTGLAKLAENFNGMAAGFYQGNWAMLVTALSTNTKSDILSTPSIVTMDNKEASFNVGQEVPVQTGTQNSTSGDTTFSTIERKTVGTKLVVTPQINEGDSVLLTIEQEVSSVGKQATGTDGLGPTFDTRTVKNAVLVKSGETVVLGGLMDEQTKEEVSKVPLLGDIPVLGYLFRSTSNNTSKRNLMVFIRPTILRDANVYSGISSNKYTLFRAQQLDAVAQEGYATSPDRQVLPEYGQDVTMSPEAQKQIELMKTHQQATADGVQPFVQGNK
notes: ExeD, T2SS secretin of Aeromonas hydrophila; a TEV cleavage site linker lies between the His-6 tag and the protein. numbers count on: the mature protein; No TEV cleavage is described; also called pilotin-independent ExeD; GspD; source: cell-free expression system with liposomes, extracted as multimers with Zw3-14, purified (Ni-NTA, Superose 6); copies: 15

Legend:
[1] = biological target: EpsD secretin from V. vulnificus (cell-free synthesized, His-tagged) (V. vulnificus); experiment: cryo-EM structure; purified multimers in TN buffer with Zw3-14, Quantifoil holey carbon grids with an extra 2 nm carbon layer; 2D class averages of top views; C15 symmetry imposed in the reconstruction
[2] = biological target: the molecule itself; experiment: as above

Row | Molecule | stoichiometry N [1] | stoichiometry N [2]
1 | EpsD secretin from V. vulnificus (cell-free synthesized, His-tagged) (natural protein) | 15 | –
2 | B1 | – | 15
